Test results taken from patent US5218092A, “Modified granulocyte-colony stimulating factor polypeptide with added carbohydrate chains” (Kyowa Hakko Kogyo Co., Ltd., priority 1988, dated 1993).

Key:
fibrin = conditions: cited from earlier work
plasminogen in blood = conditions: in vivo; cited from earlier work
thrombin = conditions: cited from earlier work
[1] = cited from earlier work; for site of clearance: sialic acid-containing or after sialic acid elimination
[2] = no carbohydrate chain; cited from earlier work
[3] = no carbohydrate chain; cited from earlier work; remark: listed apart in the source
plasmin = conditions: cited from earlier work
chymotrypsin = assay: proteolysis susceptibility of hG-CSF and hG-CSF[ND28] produced in Escherichia coli; assay type: in vitro ADME
Excerpt: Analysis of hG-CSF and the hG-CSF derivative hG-CSF[ND 28] […] On the basis of the above findings, it is estimated that, in hG-CSF[ND28], a portion close to the N terminus and a portion in the vicinity of the 144th (from the N terminus) amino acid are found on the polypeptide surface. Therefore, an attempt was made to add a carbohydrate chain to hG-CSF[ND28] on the 6th or 145th (from the N terminus) amino acid residue thereof. An hG-CSF[ND28] derivative which has a carbohydrate chain addition site on the 6th (from the N terminus) amino acid residue is hG-CSF[ND28N6] and a derivative which has a carbohydrate chain addition site on the 145th (from the N terminus) amino acid residue is hG-CSF[ND28N145]. In these cases, it is expected that the carbohydrate chain addition can result in development of protease resistance. Retardation of blood clearance can also be expected as a result of stabilization of the polypeptide.

[4] = rat plasma and rat perfusate; cited from earlier work

In the case of Urokinase, the affinity for fibrin (fibrin) is given as “no affinity for fibrin”, the “systemic hyperfibrinolysis / bleeding tendency” value (plasminogen in blood) is given as “causing systemic hyperfibrinolysis and leading to a bleeding tendency” and the “conversion under the action of thrombin” value (thrombin) is given as “converted to an inactive form upon exposure to a protease called thrombin”.

For “hGM-CSF after sialic acid elimination: hGM-CSF after sialic acid elimination”, the rate of clearance ([1]; after sialic acid elimination) is listed as “increased rate of clearance” and the site of clearance [1] is listed as “undergoes clearance in the liver”.

For “hGM-CSF: human granulocyte macrophage colony stimulating factor (hGM-CSF)”, the “rate of clearance from the rat plasma” value ([1]; dependence on number of carbohydrate chains) is listed as “the rate of clearance from the rat plasma increases in proportion to the reduction in the number of carbohydrate chains”.

In the case of “human erythropoietin: human erythropoietin produced in Escherichia coli or enzymatically treated for carbohydrate chain elimination”, the activity in vivo [2] is listed as “shows decreased activity in vivo”, the clearance [2] is listed as “undergoes rapid clearance” and the activity in vitro [3] is listed as “shows activity in vitro”.

For “sialic acid-containing hGM-CSF: sialic acid-containing hGM-CSF”, the site of clearance [1] is listed as “undergoes clearance in the kidney”.

For streptokinase: thrombolytic agent, the affinity for fibrin (fibrin) is given as “no affinity for fibrin” and the “systemic hyperfibrinolysis / bleeding tendency” value (plasminogen in blood) is given as “causing systemic hyperfibrinolysis and leading to a bleeding tendency”.

In the case of “t-PA: tissue plasminogen activator (t-PA)”, the affinity for fibrin (fibrin) is given as “have affinity for fibrin” and the “conversion under the action of plasmin” value (plasmin) is given as “Plasmin converts the single-chainform to the double-chain form”.

B1: hG-CSF: human granulocyte colony stimulating factor (hG-CSF) (protein, UniProt P09919 31-207, looked up)
Granulocyte …: TPLGPASSLPQSFLLKCLEQVRKIQGDGAALQEKLVSECATYKLCHPEELVLLGHSLGIPWAPLSSCPSQALQLAGCLSQLHSGLFLYQGLLQALEGISPELGPTLDTLQLDVADFATTIWQQMEELGMAPALQPTQGAMPAFASAFQRRAGGVLVASHLQSFLEVSYRVLRHLAQP
In the case of B1, the “susceptibility to proteolysis by chymotrypsin behind 144th amino acid Phe” value (chymotrypsin) is reported as “susceptible to proteolysis by chymotrypsin”.

B2: α1 -acid glycoproteins: α1 -acid glycoproteins differing in carbohydrate structure as biosynthesized in a rat liver primary culture system (protein, UniProt P02764 19-205, looked up)
Alpha-1-acid glycoprotein: QNPEPANITLGIPITNETLKWLSDKWFYMGAAFRDPVFKQAVQTIQTEYFYLTPNLINDTIELREFQTTDDQCVYNFTHLGVQRENGTLSKCAGAVKIFAHLIVLKKHGTFMLAFNLTDENRGLSFYAKKPDLSPELRKIFQQAVKDVGMDESEIVFVDWTKDKCSEQQKQQLELEKETKKETKKDP
modifications: glycoform mixture
notes: α1 -acid glycoproteins differing in carbohydrate structure as biosynthesized in a rat liver primary culture system
In the case of B2, the “order of clearance rates” value [4] is listed as “high mannose type>carbohydrate chain-deficient type>hybrid type>complex type (natural form)”.
